Results reported in the DeepSol protein solubility set.

Experiment: soluble on expression in E. coli; label from the status in PepcDB or PDB records

Sequence	soluble on expression in E. coli
MGSDKIHHHHHHMFVWHEYENAAEAAQSLADAVADALQGALDEKGGAVLAVSGGRSPIAFFNALSQKDLDWKNVGITLADERIVPTNHADSNTGLVREYLLKNKAAAAVWIPMVEDGKTETELHPDAVVDYALKHYKQPDVLILGMGNDGHTASIFPKAPQFQTAIDGSAGVALVHTTPVTAPHERISMTLDAIAHTGHVFLAIQGEEKKAVFDQAAQGENREYPISLVLNHQGVNCHVFYAE	not soluble
MNGQNFNEMLHDEQVFAEFMVPNAHTTPNLWRIQQQNQENQIPQNFQHLDFQYFQYQNQKQEVVHGAHCMGTVGSSWNEQVAVKKPSSSQSRKGGKNKEEAREKNHQKNKALLEMLNQVDPAVIDAEIEEQKEKQRLRKNRGRYDPIGAHGAQQGTRGVQNEVQYHRNFQNNNNNNS	not soluble
MYTITDIAPTDAEFIALIAALDAWQETLYPAESNHLLDLSQLPPQTVIALAIRSPQGEAVGCGAIVLSEEGFGEMKRVYIDPQHRGQQLGEKLLAALEAKARQRDCHTLRLETGIHQHAAIALYTRNGYQTRCAFAPYQPDPLSVFMEKP	not soluble
MAHHHHHHMGTLEAQTQGPGSMSDIPSDLHYTAEHEWIRRSGDDTVRVGITDYAQSALGDVVFVQLPVIGTAVTAGETFGEVESTKSVSDLYAPISGKVSEVNSDLDGTPQLVNSDPYGAGWLLDIQVDSSDVAALESALTTLLDAEAYRGTLTE	soluble
MMSASSPYPIGTPGQPWQASERQAWREQRHIQREYQQEVVPKILALNSLFDVSTYGALSYDPTRYPLYVVKSRHWNANKPTVLITGGVHGYETSGVHGALQFLATAAEPYLAHFNLLAAPCVSPWGYETINRWNPNAIDPNRSFVQDSPAEEAALLMAMVAEHGPILLHIDLHETTDTDESEFRPALAARDGKAYLEGSIPDGFYTVGDTENPQLAFQQAVIDSVRRVTHIAPADENHEIIGSPVVAEGVILYPMRELGLCGGMTDCTYSTTTEVYPDSPKVTAQLCNDAQVAAIIGALDYVLANEQSLLGE	not soluble
MAHHHHHHSLRGIIKRLNDDGFGILYNKILVPFSAPGDEVEVLKTEKQKRAKIATEWRLLRSSPIRVGARCKVFGKCGGCILQHINYNSQLEFKKEKLRKILGREVEIIPSPRIFGHRNRIDLAVTVNAIGFREKGKWWSVVDVEECPVFGKTSKKAIERLREYIEEEKVSTWKIREDSGFLRYMVLREGKFTGEIMVNFVTKEGELPDPTSYFDFADSIYWSINRSKSDVSYGDIEKYWGKEFIMEELDGVKYLIHPNSFFQTNSYQAVNLVKTVEKFVEGEKVVDMYSGVGTFGVYLAKKGMKVVGFDSNAFAIEMANKNAEINNVEAEFFVASDREVDIKGFDTVIVDPPRAGLHPKLVKRLNDHGPETIVYVSCNPKTFKVNIEQLNNYIIEELIALDMFPHTPHIELVGKLRRLVEG	soluble
MNTICKMRDIYKALSIFETAFEEVYGISLNEAMVLCALREAGKEITSTAIAERTEMAPSHTSKVIRAVEDKGLIRRALGEVDKRQMYFSLTEAGKKRLNELDLDKVEIPEMLKPLI	not soluble
MERNDIINFKALEKELQAALTADEKYKRENAAKLRAVEQRVASYEEFRGIVLASHLKPLERKDKMGGKRTVPWNCHTIQGRTFQDVATEISPEKAPLQPETSADFYRDWRRHLPSGPERYQALLQLGGPRLGCLFQTDVGFGLLGELLVALADHVGPADRAAVLGILCSLASTGRFTLNLSLLSRAERESCKGLFQKLQAMGNPRSVKEGLSWEEQGLEEQSGGLQEEERLLQELLELYQVD	soluble
MSLDLLISNCTVFGREGSDAIGINEGRIAFIGIDRDLRAKKRIDLSGKIVFPGFIDSHAHLLSTGLEDIRLNLYHTKSKEEVVERIAEYSKGKEKVIAYRWDESMWKPQSSYLTSSDINGIPVPVVAFRRDGHMAVANQKAMDVIGTTRKEGIFKEDDIELLEPLVKPNEAEIRDALNTAANRAISLGIVAVRDMVDISTYNEYKNIKTPLKIYKVLYSDSIFDKFGTSSQNDWGIKAFLDGSLGSRTAAHKGWDASNLKMDESKFENFAKQIWMHNLPLAVHAIGEVAVETAAKVFYRNAGRNRNSIEHFELVDDDVLDYITKTTIISSQPNFLEWAGKGGMYEDRVGGEWLYKNNPFRWMIDRGIHLAFGSDSMPIGPMYGIYYAVNSEYQRQKITLEEAVRCYSEGGSYLLGTEGYMGMLRVGYSADMAVFDEKLLKDLRGIKAAKPEITIINGKIYTNEGHHHHHH	not soluble
MKPKFETVELLSPTGEVVELKVVKRGLAQARPEPVDRNKPAWIKAPLPTGPRYQALKAMVRELRLHTVCQEALCPNIGECWTHGTLTVMILGDICTRACKFCAVHTGNPKGLVDPEEPRRVAEAIARMGVRYVVLTSVDRDDLPDGGASHFAATIRAIKERAPGVLVEALTPDFQGDLKAVETVLAANPEVYAQNLETVRRLTPKVRDPRAGYEQTLKVLAHAKKVRPDILTKSSLMLGLGETEEEILEAMRDLRAAGVDILTLGQYLRPTPAHLPVARYVPPEDFKRYEAWGYELGFREVFAGPLVRSSYRADRVFLEATQR	not soluble
MAHHHHHHMKRFFKSDGTPYNRDAANNLYGSEHTHRGGVEALSEGVAAGQYGEHKPRAIMFVNKRPVEIIPQEENLLEVLEREGIRVPKFCYHPILSVAGNCRMCLVQVDGTQNLVVSCATVALPGMSIITDSRLVRDAREGNVELILINHPNDCPICEQATNCDLQNVSMNYGTDIPRYKEDKRAVQDFYFDPQTRVVLNRCIHCTRCVRFLNEHAQDFNLGMIGRGGLSEISTFLDELEVKTDNNMPVSQLCPVGKIYLGDADENNLIAEQLDVSYESECGDRGTVTLGK	not soluble
MGSDKIHHHHHHMKKQPLAYRMRPSNIDEVIGQQHLVGEGKIIRRMVDAGQLSSMILYGPPGVGKTSIAQAIAGSTDTHYKLLNAVVNNKKDMEIVVEEAKMSGQLILILDEVHRLDKGKQDFLLPHLEKGLLILIGATTANPFHSINPAIRSRCQIFELTPLTTDEIKVALTRALTDKTHGLGEEPVVISDEALAHFAFACGGDVRSALNGLELAVRSTQPNVKGEKEITLSVAEECIQRKSFHHDKDGDAHYDVLSAFQKSIRGSDVNAALHYLARLIEAGDLVSIGRRLLVIAYEDIGLANPQAGPRTLAAIEAAERLGFPEGRIPLANAVVELCLSPKSNSAYVALDAAIADIRKGHVGSVPAHLKDAHYKGAEQLGRGIGYKYPHDYERGWVKQQYLPDSLKSRAYYEPKRTGKFEDALADVYEKLRKSTFSKES	not soluble
MGSDKIHHHHHHMKEYDKLSIRLVQILSKFNNGESLSAQELAQEFNVDTRTIQRDLNERLTFMPIKKENGRYVLESFALGKLSFKDIQNFATLSGIAELYPKLDQGFIVDLLSHRVNKVLMVKNEGFQKVDYELFKDLSVAILKHNVLNFFYKEKERQIKPYKLVNYKGIWYLLGDENDKLKHFNLDKISKLRTKNENFIPNEKLEEQIQNDPNIWLGESKEVILKLDKNAKEYFFRKEILSNYQIIDKDETSYTLSTQVSYEDEILHLVKQWIPYIKILAPIELKIRLEDILKSYLNNLSK	not soluble
MSLSEENVKLAEELIRKGYNEKKIRSLLKLPDEEFKLALEVARARIKAKDKFSRSDLWFDLEGLRYATHEVVADYRGRRLKGQGVKSIADVSCGVGIQLIFFAKHGIRSVGIDIDPIKIEFAKRNAEKYGVEVEWVVGDALSPEIIEKVDAEVIFSDPARPPEVPERNLEDLLPSPLKIYEAYKHKTDSFIFDLPPQIRREKVPWKGEFEYIDLFGHVNRLTFYTEPLAKAERSAVILPQGARLESNPDLENIVEETMEPERYIYEIPQSIDYADLINELFHKVNGELKLLLREKRRILATSNDEVKSEYFKRSYIVVKVMPFHPVRINDFLRREGYGRATLRMSVDEKEYWRIRKKIESGLSGDKRAFVFKVRDLAVIAEEIPQAEGHHHHHH	soluble
QTTKRIRDQEKATALQTAEMVAEAPMTAAALESGKKQKELQSYTKRVQKITGTEFVVVMDMNGIRKTHPDPSKIGKKFRGGDESEVLKGHVHISTASGTLGKSQRAFVPVYAENGKQVGAVAVGITVNEIDEVISHSLRP	not soluble
KILLEPTKVSFWGILRTPFMEQFGNGITPFSVGGQPMQILGLRQAGVSLGEGSSVSLMK	not soluble
MNGRVDYLVTEEEINLTRGPSGLGFNIVGGTDQQYVSNDSGIYVSRIKENGAAALDGRLQEGDKILSVNGQDLKNLLHQDAVDLFRNAGYAVSLRVQHRLQVQNGPI	soluble
MFRPILILTILSCVLAYHQYRELKCSTPTNSIRGGPDRAECHLVLKAEELETGRPVPTGLGCWQEDHDGEEREYCDIVCPKSHTVFISYIDQGHRACFNFITYQVEKRNDEHVLWRSGKCLNSTVNYRIGCKFDDPFETQFKSDNEIFAHLRARARRV	not soluble
MYYADSSPALVGLIALNARLHGIRADVVDFMAASTPAGEQAISHVYLPFSVAGVPSTFLVSM	not soluble
MEADVEQQALTLPDLAEQFAPPDIAPPLLIKLVEAIEKKGLECSTLYRTQSSSNLAELRQLLDCDTPSVDLEMIDVHVLADAFKRYLLDLPNPVIPAAVYSEMISLAPEVQSSEEYIQLLKKLIRSPSIPHQYWLTLQYLLKHFFKLSQTSSKNLLNARVLSEIFSPMLFRFSAASSDNTENLIKVIEILISTEWNERQPAPALPPKPPKPTTVAN	soluble
MTWLLFGAGNGVGGCLLQRAIECEQAVVLVLRNPEQAKHWREQGVTVVEGDACDPETVAEACRVAGPSAIVVSTMGGGTVNYQGHRTVIDGAEQAGIKRMLLVTSLGCGDSWPLLSPRARAAFGFAVREKSLAESWLQSSTLDHCIVRPGGLLDVVATHNAKLTQGAATLGLVSRSDVALAVDQLLQQPVFGNHIYNLIDPDLTMPAIPLEHHHHHH	not soluble
MEEKLVTLAILTYTKAQILKNVLENEGIETYIHNVNQIQPVVSSGVRLRIKESDLPRALKITESSAWLAESIVGEKTPKVEHRTKKVLIPVDFSNYSMKACEFGFNFAKSFDAEVILLHVYFTPIYASSLPYGDVFNYQISDEETVKNVLHKVHDDLNTLSEKIKQKVASGEFPDVKYTCVLREGIPEEEILRYNKEHRPRIIIMGTRGKNQKDIDLIGSVTAEIIERSHTTVLAIPENTPFNRFNEVKRIAFMTNFDQRDLIAFDSFINGLSPFHFSVSLIHLSDVKDTWNEIKLAGIKDYFQKQYPDLEIHYDVVMSNDFLNSLDNYIKTNQIDIITLTSYKRNIFSRLFNPGIARKMIFHSDTPLLVING	not soluble
MGSDKIHHHHHHMALKDYAIEKEKVKKFLQEFYYENELGKKQFKYGTQLVHLAHREQVALYVDLDDIAEDDPELVDSICENAKRYSRLFGDVVQELLPEYKEKEVVNKDVLDVYIEHRLMMEQRSRDPGAVRNPQNQYPSELMRRFELYFRGPSSSKPRVIREVRADSVGKLLTVRGIVTRVSEVKPRMVVATYTCDQCGAETYQPIQSPTFMPLIMCPSQECQTNRSGGRLYLQTRGSKFVKFQEMKIQEHSDQVPVGNIPRSITVVLEGENTRIAQPGDHVSVTGIFLPVLRTGFQQMAQGLLSETYLEAHWIVKMTKSDDDVSGAGELSSEELKQIAEEDFYEKLAASIAPEIYGHEDVKKALLLLLVGGVDQSPQGMKIRGNIHICLMGDPGVAKSQLLSYIDRLAPRSQYTTGRGSSGVGLTAAVLRDSVSGELTLEGGALVLADQGVCCIDEFDKMAEADRTAIHEVMEQQTISIAKAGILTTLNARCSILAAANPAYGRYNPRRSLEQNVQLPAALLSRFDLLWLIQDRPDRDNDLRLAQHITYVHQHSRQPPAQFEPLDMKLMRRYIAMCHERQPTVPESLADYITAAYVEMRREARASKDATYTSARTLLAILRLSTALARLRMVDIVEKEDVNEAIRLMEMSKDSLLGEKGQTARTQRPADVIFATIRELVSRGRSVHFSEAEQRCISRGFTPAQFQAALDEYEELNVWQVNTSRTRITFV	not soluble
